Results: publication PMC9700705, “A non-carboxylating pentose bisphosphate pathway in halophilic archaea” (Communications Biology, 2022)

Tests used:
[1] = target: T1, glycolaldehyde reductase (GaR, VNG_6270G) (Halobacterium salinarum, UniProt Q9HHR2); experiment: NADH consumption at […] nm; type: biochemical; details: 0.2 mM NADH, 50 mM MES-NaOH pH 6.0, 3 M KCl, 40 °C; fit with substrate inhibition; substrate inhibition constant, second site
T1 construct: native protein purified from H. salinarum cell-free extract (hydroxyapatite, Superdex200), identified by LC-MS; plasmid-encoded; GenBank entry is the codon-optimised recombinant gene (Hs-GaR)
T1 sequence (Q9HHR2 1-365): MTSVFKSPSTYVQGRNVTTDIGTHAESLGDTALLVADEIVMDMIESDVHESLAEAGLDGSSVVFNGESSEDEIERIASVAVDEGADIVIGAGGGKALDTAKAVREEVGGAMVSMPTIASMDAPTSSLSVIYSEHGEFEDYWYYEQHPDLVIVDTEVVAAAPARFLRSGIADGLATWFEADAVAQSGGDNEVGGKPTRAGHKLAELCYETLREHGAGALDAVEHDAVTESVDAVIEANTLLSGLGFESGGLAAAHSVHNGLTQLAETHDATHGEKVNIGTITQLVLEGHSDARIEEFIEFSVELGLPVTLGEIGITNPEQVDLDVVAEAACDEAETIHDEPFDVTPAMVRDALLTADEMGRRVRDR

[2] = target: T2, Hx-RbsK (ATP-R1PK) (Halopiger xanaduensis, UniProt F8D4I6); experiment: PK/LDH-coupled NDP quantification; type: biochemical; details: 25 mM R1P, 20 mM MgCl2, 0.8 M NaCl, 42 °C
T2 construct: gene Halxa_1682; recombinant from E. coli Rosetta (DE3), codon-optimised synthetic gene in pET-21a(+) NdeI/BamHI, purified on anion exchange, hydroxyapatite and gel filtration

[3] = target: T2, Hx-RbsK (ATP-R1PK); experiment: PK/LDH-coupled NDP quantification; HPLC of product R15P; type: biochemical; details: 20 mM MgCl2, 2 M KCl, pH 8.3-8.4, 47 °C
[4] = substrate: O=P(O)(O)O; experiment: purified protein; details: 1 mM guanosine, 2 M KCl, 30 °C
[5] = substrate: Nc1nc2c(ncn2[C@@H]2O[C@H](CO)[C@@H](O)[C@H]2O)c(=O)[nH]1; experiment: purified protein; type: biochemical, Halorubrum lacusprofundi; details: 50 mM sodium phosphate pH 7.5, 2 M KCl, 30 °C
[6] = substrate: O=C(COP(=O)(O)O)[C@H](O)[C@H](O)COP(=O)(O)O; experiment: purified protein; type: biochemical, Halopiger xanaduensis; details: 50 mM Tris-HCl pH 7.5, 2 M KCl, 5 mM MgCl2
[7] = substrate: O=CCO; experiment: HPLC of Ru1P formed (condensation direction); type: biochemical, Halopiger xanaduensis; details: 20 mM DHAP, 50 mM Tris-HCl pH 8.0, 2 M KCl, 1 mM ZnCl2, 47 °C
[8] = substrate: O=C(CO)COP(=O)(O)O; experiment: HPLC of Ru1P formed (condensation direction); type: biochemical, Halopiger xanaduensis; details: 50 mM glycolaldehyde, 50 mM Tris-HCl pH 8.0, 2 M KCl, 1 mM ZnCl2, 47 °C
[9] = substrate: O=CCO; experiment: purified protein; type: biochemical, Halobacterium salinarum; details: 0.2 mM NADH, 50 mM MES-NaOH pH 6.0, 3 M KCl, 40 °C, fit with substrate inhibition

T2 sequence (F8D4I6 whole entry): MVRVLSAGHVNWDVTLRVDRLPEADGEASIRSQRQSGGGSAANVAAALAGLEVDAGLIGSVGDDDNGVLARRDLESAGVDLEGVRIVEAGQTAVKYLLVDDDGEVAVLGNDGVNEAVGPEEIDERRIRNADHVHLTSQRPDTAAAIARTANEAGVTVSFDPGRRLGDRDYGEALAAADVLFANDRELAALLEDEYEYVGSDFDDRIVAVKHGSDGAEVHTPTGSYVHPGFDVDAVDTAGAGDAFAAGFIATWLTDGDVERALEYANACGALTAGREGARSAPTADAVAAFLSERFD

## O=CCO [glycolaldehyde]
[1]
  Ks2: 35 ± 8 mM

## Nc1ncnc2c1ncn2[C@@H]1O[C@H](COP(=O)(O)OP(=O)(O)OP(=O)(O)O)[C@@H](O)[C@H]1O [ATP]
[2]
  PK/LDH-coupled NDP quantification: Using R1P as the phosphate acceptor, the enzyme preferred ATP among NTPs

## O=P(O)(O)O[C@H]1O[C@H](CO)[C@@H](O)[C@H]1O [R1P]
[3]
  PK/LDH-coupled NDP quantification; HPLC of product R15P: HPLC analysis of the Hx-RbsK reaction product indicated that R15P was generated from R1P

B1: Hl-Urdpase1 (guanosine phosphorylase) (Halorubrum lacusprofundi ATCC 49239) (protein)
chain: MAKQPHLLVEEGDVHEIAIIPGDPGRVDRIADLCDDSELVAQNREYKIVNASYDGTDLTICSTGIGCPSAAIAVEELSRVGVETFLRCGTCGALQADMEVGDMVVATGAAKEEGTSKRYESVEYPAVPDYDALTELVGAAEDNDEEIHVGPIVSDDAFYNESDEYVDDWNDANLLAIEMEAATVFALARRKGLRAGAICTVDGNLVAGNQKGADSDDELPEKAKDNVERAIRITLNAVTAL
notes: recombinant from E. coli BL21-CodonPlus(DE3)-RIL, codon-optimised synthetic gene in pET-21a(+) NdeI/BamHI, purified on hydroxyapatite and gel filtration
[4]
  Km: 4.8 ± 0.8 mM
[5]
  Km: 0.056 ± 0.01 mM

B2: Hx-HAD hydrolase (RuBP phosphatase) (Halopiger xanaduensis SH-6) (protein)
chain: MATAVLFDLDNTLYPYPPCNQAGKAAALERAQELGYDFDHESFAEFYQAGRREVKRDTGGTAASHERYLYFKRALELHTGSPRPGDALALGDAYWSAYLEEMSLVPDAKETLEELQEQGVDIAITTNLTTTIQLAKLERLGLTDYVDLVLTSEETGQEKPASVMFTLPLARLDSRASEAVMVGDDLEADIAGANAVGLETVLFDPSEESDATESADRAATERQADHSIDTLGELTDLVS
notes: recombinant from E. coli Rosetta (DE3), codon-optimised synthetic gene in pET-21a(+) NdeI/BamHI, purified on hydroxyapatite and gel filtration
[6]
  Km: 2.2 ± 0.5 mM

B3: Hx-FucA (Ru1P aldolase) (Halopiger xanaduensis SH-6) (protein)
chain: MILETERRAVVEHASELADLTPGRTGNLSVRGSGDDTDAGPGDAFAITPTGVPYDGFDVEDVPVVGTDGERLDGEMAPSSEVPMHSAIYRREDVGAIVHTHSPWATALAVANQPLPPIHYMIVAVGKRVPVAEYAPYGTDELAENIVTAMTEAGSTASLIENHGLVVTAPDLETALENTHHVESLARLYLESRSAGLEPQTLTDDQLETVLEKFESYGQ
notes: recombinant from E. coli Rosetta (DE3), codon-optimised synthetic gene in pET-21a(+) NdeI/BamHI, purified on anion exchange, hydroxyapatite and gel filtration
[7]
  Km: 3.4 ± 0.3 mM
[8]
  Km: 3.5 ± 0.3 mM

B4: glycolaldehyde reductase (GaR, VNG_6270G) (Halobacterium salinarum NRC-1) (protein)
chain: MTSVFKSPSTYVQGRNVTTDIGTHAESLGDTALLVADEIVMDMIESDVHESLAEAGLDGSSVVFNGESSEDEIERIASVAVDEGADIVIGAGGGKALDTAKAVREEVGGAMVSMPTIASMDAPTSSLSVIYSEHGEFEDYWYYEQHPDLVIVDTEVVAAAPARFLRSGIADGLATWFEADAVAQSGGDNEVGGKPTRAGHKLAELCYETLREHGAGALDAVEHDAVTESVDAVIEANTLLSGLGFESGGLAAAHSVHNGLTQLAETHDATHGEKVNIGTITQLVLEGHSDARIEEFIEFSVELGLPVTLGEIGITNPEQVDLDVVAEAACDEAETIHDEPFDVTPAMVRDALLTADEMGRRVRDR
notes: native protein purified from H. salinarum cell-free extract (hydroxyapatite, Superdex200), identified by LC-MS; plasmid-encoded; GenBank entry is the codon-optimised recombinant gene (Hs-GaR)
[9]
  Km: 10 ± 2 mM
